This sample holds only a part of the variants without activity.
Assays:
biotinyl-Phe-oxazolone = assay: self-aminoacylation, catalytic enhancement (BFO) (fold over background); higher = more active; k-Seq, kA / k0A0; sequences stand for … in GGGAAUGGAUCCACAUCUACGAAUUC…UUCACUGCAGACUUGACGAAGCUG
Outline: (§1)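 Each biotinyl-aminoacyl-oxazolone, at 2–1250 μM, was incubated with mutagenized RNA pools (0.43 μM) carrying a 21-nt variable region. The 50 μL reactions contained HEPES/NaCl/KCl/MgCl2/CaCl2 buffer with 5% acetonitrile at pH 6.9–7.0 and ran for 90 minutes at room temperature. After streptavidin capture, RNA was measured by qPCR in triplicate and by Illumina sequencing, and catalytic enhancement was calculated as median kA over the uncatalyzed rate from a pseudo-first-order fit of per-sequence fraction reacted.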

biotinyl-Ile-oxazolone = assay: self-aminoacylation, catalytic enhancement (BIO) (fold over background); higher = more active; k-Seq, kA / k0A0; sequences stand for … in GGGAAUGGAUCCACAUCUACGAAUUC…UUCACUGCAGACUUGACGAAGCUG
Outline: as §1

biotinyl-Met-oxazolone = assay: self-aminoacylation, catalytic enhancement (BMO) (fold over background); higher = more active; k-Seq, kA / k0A0; sequences stand for … in GGGAAUGGAUCCACAUCUACGAAUUC…UUCACUGCAGACUUGACGAAGCUG
Outline: as §1

biotinyl-Val-oxazolone = assay: self-aminoacylation, catalytic enhancement (BVO) (fold over background); higher = more active; k-Seq, kA / k0A0; sequences stand for … in GGGAAUGGAUCCACAUCUACGAAUUC…UUCACUGCAGACUUGACGAAGCUG
Outline: as §1

biotinyl-Leu-oxazolone = assay: self-aminoacylation, catalytic enhancement (BLO) (fold over background); higher = more active; k-Seq, kA / k0A0; sequences stand for … in GGGAAUGGAUCCACAUCUACGAAUUC…UUCACUGCAGACUUGACGAAGCUG
Outline: as §1

biotinyl-Trp-oxazolone = assay: self-aminoacylation, catalytic enhancement (BWO) (fold over background); higher = more active; k-Seq, kA / k0A0; sequences stand for … in GGGAAUGGAUCCACAUCUACGAAUUC…UUCACUGCAGACUUGACGAAGCUG
Outline: as §1

Row | Sequence | self-aminoacylation (biotinyl-Phe-oxazolone) | self-aminoacylation (biotinyl-Ile-oxazolone) | self-aminoacylation (biotinyl-Met-oxazolone) | self-aminoacylation (biotinyl-Val-oxazolone) | self-aminoacylation (biotinyl-Leu-oxazolone) | self-aminoacylation (biotinyl-Trp-oxazolone)
1 | AUUAGCCUGGUCAUCGAGUGU [Fam2.1 aminoacylation ribozyme variant] | 3.87 | 2.76 | 4.71 | 3.14 | 4.18 | 5.12
2 | AUUCAGCUAGGUCAUCAGGUG [Fam2.2 aminoacylation ribozyme variant] | 8.1 | 1.63 | 2.38 | 2.04 | 2.39 | 2.09
3 | AAGUUUGCUAAGAAUCGCAAG [Fam3.1 aminoacylation ribozyme variant] | 0.824 | 0.583 | 0.503 | 0.58 | 0.521 | 0.588
4 | CUACUUAAAACAAACGGUCUG [Fam1A.1 aminoacylation ribozyme variant] | 0.836 | 0.911 | 0.871 | 0.895 | 0.933 | 0.67
5 | CUUACCCUGGUCAACGAGUGA [Fam2.1 aminoacylation ribozyme variant] | 15.8 | 2.56 | 5.06 | 3.29 | 5.08 | 6.73
6 | ACGUUUGCUAAUAGUCUCAAG [Fam3.1 aminoacylation ribozyme variant] | 3.28 | 1.11 | 0.921 | 1.13 | 1.02 | 2.15
7 | AAAUAUGCUAAUAGUCGCAAG [Fam3.1 aminoacylation ribozyme variant] | 2.27 | 2.03 | 1.45 | 1.55 | 1.44 | 2.25
8 | AUUCACCUAGGUGGUCGGGUG [Fam2.2 aminoacylation ribozyme variant] | 18.3 | 2.49 | 2.41 | 2.77 | 4.09 | 3.42
9 | AUUCACCUUGUUCAUCGGGUG [Fam2.2 aminoacylation ribozyme variant] | 15.2 | 2.01 | 2.72 | 2.42 | 3.38 | 2.91
10 | CCACAAUUCAAGCCAUCGGUC [Fam1B.1 aminoacylation ribozyme variant] | 1.19 | 1.46 | 1.47 | 1.7 | 1.59 | 1.3
11 | CCACUCUUAAAGCAAUCGGUC [Fam1B.1 aminoacylation ribozyme variant] | 0.711 | 1.06 | 0.911 | 1.01 | 0.993 | 0.693
12 | CCACAUUUCCAGCAAUCGGUC [Fam1B.1 aminoacylation ribozyme variant] | 1.26 | 2.12 | 1.64 | 2.04 | 2.15 | 1.23
13 | AUUCGCCUAGGUCAUCGUGUG [Fam2.2 aminoacylation ribozyme variant] | 3.31 | 1.04 | 1.45 | 1.05 | 1.35 | 0.823
14 | CUACUUGUAACAAUCGGUCUG [Fam1A.1 aminoacylation ribozyme variant] | 0.824 | 0.651 | 0.806 | 0.658 | 0.678 | 0.573
15 | AUUCACCUAAGUCAACGGGUG [Fam2.2 aminoacylation ribozyme variant] | 28 | 2.58 | 3.57 | 2.43 | 4.67 | 3.21
16 | CUACUUCAAACAAUCGGACUU [Fam1A.1 aminoacylation ribozyme variant] | 1.04 | 0.788 | 0.737 | 0.85 | 0.665 | 1.07
17 | AAGUUUGCUAAAAGUCGCGAG [Fam3.1 aminoacylation ribozyme variant] | 2.4 | 1.7 | 2.21 | 1.68 | 2.1 | 2.34
18 | AUUCACCUAAGUCAUAGGGUG [Fam2.2 aminoacylation ribozyme variant] | 5.88 | 1.32 | 1.87 | 1.21 | 1.92 | 1.3
19 | CCACGCUUCAAGCAAUCGGUC [Fam1B.1 aminoacylation ribozyme variant] | 76.9 | 1.2 | 1.37 | 1.54 | 2.11 | 39.9
20 | AAGUUUACUGAUAGUCGCAAG [Fam3.1 aminoacylation ribozyme variant] | 2.67 | 1.62 | 1.02 | 1.32 | 1.38 | 1.55
21 | AUUCACCAAGGUCAACGGGUG [Fam2.2 aminoacylation ribozyme variant] | 42.5 | 3.52 | 6.3 | 3.1 | 8.07 | 6.16
22 | CCACACUUCCAGCAACCGGUC [Fam1B.1 aminoacylation ribozyme variant] | 0.744 | 1.15 | 0.879 | 1.34 | 0.925 | 1.14
23 | AUUUCCCUGGUCAUGGAGUGA [Fam2.1 aminoacylation ribozyme variant] | 22 | 2.96 | 4.2 | 2.89 | 4.22 | 4.72
24 | AUUACCCUGGUCAUCGUAUGA [Fam2.1 aminoacylation ribozyme variant] | 0.633 | 0.789 | 0.984 | 1.02 | 0.814 | 0.855
25 | AUUAACCUGGUCACCGAGUGA [Fam2.1 aminoacylation ribozyme variant] | 40.8 | 3.88 | 6.76 | 3.69 | 8.22 | 7.92
26 | AAGUUUGCUACUAGUCGCCAG [Fam3.1 aminoacylation ribozyme variant] | 0.986 | 1.27 | 1.26 | 1.1 | 0.749 | 1.91

Row | Sequence | self-aminoacylation (biotinyl-Phe-oxazolone) | self-aminoacylation (biotinyl-Ile-oxazolone) | self-aminoacylation (biotinyl-Met-oxazolone) | self-aminoacylation (biotinyl-Val-oxazolone) | self-aminoacylation (biotinyl-Leu-oxazolone) | self-aminoacylation (biotinyl-Trp-oxazolone)
27 | AUUCACAUAGGUCAUGGGGUG [Fam2.2 aminoacylation ribozyme variant] | 46.7 | 4.56 | 7.28 | 4.12 | 9.35 | 6.97
28 | AUUACCCUGGUGAUCGACUGA [Fam2.1 aminoacylation ribozyme variant] | 0.543 | 1.05 | 0.951 | 1.02 | 1.12 | 0.743
29 | GUUACCCUGGUCAGCGAGUGA [Fam2.1 aminoacylation ribozyme variant] | 42.9 | 4.8 | 6.72 | 4.05 | 6.76 | 7.95
30 | AUUCACCUAGGACAUCUGGUG [Fam2.2 aminoacylation ribozyme variant] | 8.71 | 2.02 | 2.13 | 1.72 | 2.13 | 2.13
31 | AUUACCCUGGUCAUCAAAUGA [Fam2.1 aminoacylation ribozyme variant] | 1.1 | 1.1 | 1.14 | 0.806 | 0.969 | 0.735
32 | AUUCACCUUGGUCAACGGGUG [Fam2.2 aminoacylation ribozyme variant] | 20.3 | 2.22 | 3.19 | 2.2 | 4.24 | 3.03
33 | AAGUUUGCUAAUAGUGGCAAC [Fam3.1 aminoacylation ribozyme variant] | 0.826 | 0.805 | 0.737 | 0.822 | 0.783 | 0.575
34 | AUUACCCUGCACAUCGAGUGA [Fam2.1 aminoacylation ribozyme variant] | 29.8 | 3.01 | 6.87 | 3.65 | 7.49 | 8.38
35 | AUUACCCUAGUCAUCAAGUGA [Fam2.1 aminoacylation ribozyme variant] | 11.2 | 2.05 | 3.73 | 2.58 | 3.66 | 4.95
36 | CCACACUUCAAGCUAUGGGUC [Fam1B.1 aminoacylation ribozyme variant] | 0.774 | 0.966 | 0.875 | 0.911 | 0.763 | 0.724
37 | AUUCACCUUUGUCAUCGGGUG [Fam2.2 aminoacylation ribozyme variant] | 25.4 | 3.14 | 4.43 | 3.11 | 5.41 | 4.62
38 | AAGUUCGCUAAUACUCGCAAG [Fam3.1 aminoacylation ribozyme variant] | 0.849 | 1.53 | 1.47 | 1.12 | 1.2 | 0.7
39 | CUACUUCAAACAAUCGGAGUG [Fam1A.1 aminoacylation ribozyme variant] | 6.37 | 3.06 | 3.25 | 2.52 | 4.96 | 3.77
40 | AAGUGUGCUAAUAUUCGCAAG [Fam3.1 aminoacylation ribozyme variant] | 1.63 | 1.92 | 1.58 | 1.53 | 1.51 | 2.22
41 | AAGUAUGCUAAUAGUCGCAAC [Fam3.1 aminoacylation ribozyme variant] | 2.19 | 1.22 | 1.2 | 0.942 | 1.28 | 1.23
42 | AAGUUGGCUAAUAGCCGCAAG [Fam3.1 aminoacylation ribozyme variant] | 2.16 | 1.89 | 2.22 | 1.91 | 1.95 | 2.85
43 | AUUCACCCAGGGCAUCGGGUG [Fam2.2 aminoacylation ribozyme variant] | 20 | 3.62 | 3.74 | 3.72 | 6.26 | 3.92
44 | UUACUUCAAACAAUCGGUCUG [Fam1A.1 aminoacylation ribozyme variant] | 37.4 | 1.3 | 1.29 | 1.22 | 1.69 | 20.7
45 | AAGUUUGCUGAUAGUCGCGAG [Fam3.1 aminoacylation ribozyme variant] | 6.95 | 1.75 | 1.72 | 1.61 | 2.43 | 1.81
46 | AUUACCCUGGUCACCGUGUGA [Fam2.1 aminoacylation ribozyme variant] | 21.1 | 1.98 | 3.88 | 2.06 | 3.95 | 5.51
47 | CUACUUCAAACGAUCCGUCUG [Fam1A.1 aminoacylation ribozyme variant] | 0.594 | 0.783 | 0.958 | 0.808 | 0.787 | 0.755
48 | CCACACGUCAAGCAAUAGGUC [Fam1B.1 aminoacylation ribozyme variant] | 1.1 | 0.655 | 0.765 | 0.831 | 0.652 | 0.587
49 | CUACUUCAAACAACCGGUCGG [Fam1A.1 aminoacylation ribozyme variant] | 1.17 | 0.978 | 1.05 | 1.08 | 1.24 | 0.808
50 | UCUACCCUGGUCAUCGAGUGA [Fam2.1 aminoacylation ribozyme variant] | 14.6 | 5.18 | 10.4 | 5.79 | 9.36 | 12.6
51 | AUCACCCUGGUCAUAGAGUGA [Fam2.1 aminoacylation ribozyme variant] | 85.7 | 5.17 | 13.6 | 4.92 | 13.2 | 13.2

Reference: the supplement of paper PMC9233669
